What was measured:
[1] = test system: SC or SU oligonucleotides (80 nt); experiment: Electrophoretic mobility shift assay (EMSA) of ssDNA binding; details: biotinylated SC oligonucleotides (80 nt), FIG. 3B
Description: SC (10 pmol) was 3′ labeled with dATP-biotin using 10 u terminal deoxynucleotidyl transferase (NEB) in NEBuffer 4 (NEB) supplemented with 0.25 mM CoCl2 and 10 μM dATP-biotin (Invitrogen). Labeled oligos (200 fmol) were incubated with A3G or RPA for 8 or 30 mM, respectively, at room temperature, in EMSA buffer: 50 mM Tris (pH 7.0), 50 mM NaCl, 0.1 mg/mL BSA and 10% glycerol, in 10 μL, reaction volume. Samples were resolved by 6% native PAGE, transferred to a Hybond N nylon membrane (GE Healthcare) using a semi-dry transfer apparatus (Biorad) and UV-crosslinked (302 nm) for 15 min. Following blocking with Casein blocking buffer (Sigma), the membrane was treated with horseradish peroxidase conjugated sterptavidine (Jackson) for 20 mM at RT, washed 6 times with TBS (pH 7.4) and visualized by enhanced chemiluminescence. […] Following incubation with A3G, samples were resolved by PAGE, stained with SYBR Gold (Molecular Probes) and visualized by UV light (302 nm).

[2] = test system: primer with 3′-terminal CC; experiment: Terminal cytidine deamination, DNA polymerase primer extension / PCR assay; format: biochemical; details: FIG. 4A
Description: A3G deaminates the extreme base of the ssDNA 3′-terminus and tethers two ssDNA termini To determine whether A3G interacts with the terminal base of the ssDNA, the inventors tested terminal cytidine deamination by A3G. A primer with 3′-terminal CC was incubated with A3G and was then used for extension and PCR amplification of a target sequence. It was previously shown that A3G W285 residue contributes to formation of a hydrophobic cavity and is essential for catalytic activity. […] A cleavage resistant polynucleotide deaminase substrate, comprising an internal cytidine, was incubated with either A3G or A3G W285A. Upon deamination, the internal uridine-containing polynucleotide was susceptible to restriction, and yielded a fragment which was apparent in the PAGE analysis of the cleaved deamination products shown in FIG. 3C (bottom).

[3] = test system: ss-deoxyoligonucleotide substrate; experiment: Cytidine deaminase activity of purified wild-type and mutant A3G; format: biochemical
Description: Deaminase activity of purified enzyme and virion-associated A3G protein was examined as previously described. Briefly, A3G deamination reactions were performed in a total volume of 10 μl in 25 mM Tris, pH 7.0, and 0.01-1 fmol single-stranded (ss) deoxyoligonucleotide substrate at 37° C. The reaction was terminated by heating to 95° C. for 5 min. One μl of the reaction mixture was used for PCR amplification performed in 20 μl buffer S, using the following program: 1 cycle at 95° C. for 3 min, followed by 30 cycles of annealing at 61° C. for 30 s and denaturing at 94° C. for 30 s. Aliquots of the PCR products (10 μl) were incubated with Eco147I restriction enzyme for 1 h at 37° C. Completion of the restriction reaction was verified by using positive-control substrate containing CCU instead of CCC. Restriction-reaction products were loaded onto 14% gels and separated by PAGE. Gels were stained with SYBR gold nucleic acid stain diluted 1:10,000 in 0.5× Tris-Borate-EDTA buffer (TBE, pH 7.8), visualized by UV light (312 nm), captured by an Olympus C-5050 charge-coupled device (CCD) camera and analyzed by optical density (OD) scan using the TINA2.0 densitometry software. Assessment of A3G entrapped in virions was carried out with concentrated viruses stocks of 3-5 μg of p24/μl) suspended in PBS containing Triton X-100 at final concentration of 0.1% (vv) and 50 μg/ml RNase A (Sigma-Aldrich). […]

[4] = test system: HRind cells (U2OS-DR-GFP); experiment: DR-GFP HR reporter assay of ISceI-induced DSB repair; format: cell-based; details: expression plasmid transfected, 52 hours after ISceI induction, FIG. 11B
Description: Repair of a unique ISceI-induced DSB by HR was assessed in U2OS-DR-GFP cells stably transfected with the Cherry-Sce-GR plasmid (HRind cells) as described in Shahar OD et al.. Cherry-ZScel-GR rapidly translocates from the cytoplasm into the nucleus on binding to triamcinolone acetonide (TA). The DR-GFP cassette enables reconstitution of GFP after ZScel-dependent HR between 2 mutated GFP sequences. Transfection of A3G or A3GW285A expression plasmids was performed in 24-well plates with GenJet (Signa-gen). Forty hours after transfection, IScel-directed DSB was induced with 10^7M TA (Sigma-Aldrich). GFP^+ cells were sorted 52 hours later by flow cytometry using FACScan as described in Shahar OD [10].

[5] = test system: DNA1 and DNA2 ss-oligonucleotides; experiment: Terminal ssDNA tethering by DNA polymerase terminal extension; format: biochemical; details: DNA1+2, FIG. 4D
Description: DNA1 and DNA2 were annealed to an equimolar amount of a short oligonucleotide (30 nt) complementary to the 5′-termius by heating to 95° C. followed by slow cooling to RT. DNA-polymerase extension reactions were performed in a total volume of 7 μl and included 100 fmol annealed oligonucleotides, 50 μM dNTPs (dCTP, dGTP, dTTP and dATP-biotin (Invitrogen)), NEBuffer 1 (final dilution ×0.35 (NEB)), 1 mg/ml BSA, 100 fmol A3G or A3G W285A, and 5 u Klenow Fragment (3′→5′ exo(−), NEB). Reactions were incubated for 30 min at 37° C. and terminated by heating to 95° C. for 5 min and adding 5 μl formamide. Samples were then heated to 80° C. prior to loading on pre-heated 10% acrylamide gel containing 6M urea. Gels were washed in Tris-Boric acid-EDTA buffer (ph 8.3) for 15 min and transferred to nylon membranes as described in the EMSA protocol below.
To further investigate A3G-mediated terminal ssDNA tethering, the inventors developed a DNA polymerase extension assay depicted in FIG. 4C. The 5′-termini of two ss-oligonucleotides (DNA1 and DNA2, 80 nt) were annealed to complementary oligonucleotides (30 nt), leaving 3′ ssDNA overhangs. […] As expected, no extension products were detected in the presence or absence of wild-type or mutant A3G (not shown). […]

[6] = test system: SupT11 cells; experiment: γ-H2AX foci in SupT11 cells stably expressing A3G variants after IR; format: cell-based, human; details: 24 hours after IR (4 Gy), FIG. 9B
Description: Cells were irradiated by exposure to a ^60Co source producing 1 Gy sec^−1 γ-radiation, or mock-irradiated. Following incubation at 37° C., cells were fixed, attached to glass slides by cytospin, permeabilized with detergent and blocked with 10% normal goat serum. Cells were then incubated with A3G-specific rabbit polyclonal antibody, γ-H2AX-specific monoclonal antibody, or RPA32-specific monoclonal antibody, followed by incubation with goat anti-rabbit Cy-5-conjugated antibody, goat anti-mouse Cy-2-conjugated antibody and DAPI. Slides were mounted and examined by Zeiss LSM 710 confocal microscope. Data were collected sequentially using a ×63 objective with 7-fold averaging at a resolution of […], Z-sections were obtained using an optical slice of less than 1 μm. Data were analyzed with the Zen 2009.
To assess whether A3G cytidine deaminase activity is required for DSB repair, the inventors examined whether IR-Induced 7412AX focus formation occurred differentially in SupTH cells stably expressing A3G, an E259Q catalytic mutant (as denoted by SEQ ID NO. 90) or empty vector (EV).

Molecule | ssDNA binding properties [1] | PCR amplification after incubation of the primer [2] | catalytic activity (cytidine deamination) ([3]; purified protein, FIG. 3C) | reduction of HR [4] [%] | extension efficiency relative to Klenow fragment alone [5] | average DSB load (γ-H2AX focus formation), lower than EV control cells [6] | inhibition of the PCR reaction after incubation of the primer [2] [%] | dC in the oligonucleotide substrate deaminated ([3]; purified recombinant A3G alone, FIG. 14A) [%] | enhancement of DSB repair [6]
A3G W285A: A3G W285A catalytic mutant, deaminase-dead control that binds ssDNA (protein, A3G W285A mutant) MKPHFRNTVERMYRDTFSYNFYNRPILSRRNTVWLCYEVKTKGPSRPPLDAKIFRGQVYSELKYHPEMRFFHWFSKWRKLHRDQEYEVTWYISWSPCTKCTRDMATFLAEDPKVTLTIFVARLYYFWDPDYQEALRSLCQKRDGPRATMKIMNYDEFQHCWSKFVYSQRELFEPWNNLPKYYILLHIMLGEILRHSMDPPTFTFNFNNEPWVRGRHETYLCYEVERMHNDTWVLLNQRRGFLCNQAPHKHGFLEGRHAELCFLDVIPFWKLDLDQDYRVTCFTSASPCFSCAQEMAKFISKNKHVSLCIFTARIYDDQGRCQEGLRTLAEAGAKISIMTYSEFKHCWDTFVDHQGCPFQPWDGLDEHSQDLSGRLRAILQNQEN | retained wild-type ssDNA binding properties | normal PCR amplification | catalytically inactive | 6.2 |  |  |  |  | 
A3G: wild-type human APOBEC3G, purified with C-terminal His6 tag from 293T cells or expressed in cells (protein, listed as Homo sapiens, C-terminal His6 tag, wild-type human APOBEC3G, purified with C-terminal His6 tag from 293T cells or expressed in cells) MKPHFRNTVERMYRDTFSYNFYNRPILSRRNTVWLCYEVKTKGPSRPPLDAKIFRGQVYSELKYHPEMRFFHWFSKWRKLHRDQEYEVTWYISWSPCTKCTRDMATFLAEDPKVTLTIFVARLYYFWDPDYQEALRSLCQKRDGPRATMKIMNYDEFQHCWSKFVYSQRELFEPWNNLPKYYILLHIMLGEILRHSMDPPTFTFNFNNEPWVRGRHETYLCYEVERMHNDTWVLLNQRRGFLCNQAPHKHGFLEGRHAELCFLDVIPFWKLDLDQDYRVTCFTSWSPCFSCAQEMAKFISKNKHVSLCIFTARIYDDQGRCQEGLRTLAEAGAKISIMTYSEFKHCWDTFVDHQGCPFQPWDGLDEHSQDLSGRLRAILQNQEN |  |  |  | 30.2 | approximately 9 fold | approximately 2 fold | ~90 | 20 | 
A3G E259Q: A3G E259Q catalytic mutant stably expressed in SupT11 cells (protein, A3G E259Q mutant, A3G E259Q catalytic mutant stably expressed in SupT11 cells) MKPHFRNTVERMYRDTFSYNFYNRPILSRRNTVWLCYEVKTKGPSRPPLDAKIFRGQVYSELKYHPEMRFFHWFSKWRKLHRDQEYEVTWYISWSPCTKCTRDMATFLAEDPKVTLTIFVARLYYFWDPDYQEALRSLCQKRDGPRATMKIMNYDEFQHCWSKFVYSQRELFEPWNNLPKYYILLHIMLGEILRHSMDPPTFTFNFNNEPWVRGRHETYLCYEVERMHNDTWVLLNQRRGFLCNQAPHKHGFLEGRHAQLCFLDVIPFWKLDLDQDYRVTCFTSWSPCFSCAQEMAKFISKNKHVSLCIFTARIYDDQGRCQEGLRTLAEAGAKISIMTYSEFKHCWDTFVDHQGCPFQPWDGLDEHSQDLSGRLRAILQNQEN |  |  |  |  |  |  |  |  | enhanced repair was not observed
